Where a chain is given by its changes, count along the chain named.
B1: LCB3-NS (LCB3 H19aNBDC) (designed binder)
chain: MNDDELHMLMTDLVYEALCFAKDEEIKKRVFQLFELADKAYKNNDRQKLEKVVEELKELLERLLS
B2: VHH72 wt (VHH)
VHH: QVQLQESGGGLVQAGGSLRLSCAASGRTFSEYAMGWFRQAPGKEREFVATISWSGGSTYYTDSVKGRFTISRDNAKNTVYLQMNSLKPDDTAVYYCAAAGLGTVVSEWDYDYDYWGQGTQVTVSS
B3: VHH72 G56MDCcC (VHH)
VHH: B2 VHH with G56C
B4: VHH72 NoK wt (VHH)
VHH: B2 VHH with K43R, K65R, K76R, K87R

What was measured:
[1] = biological target: T1, SARS-CoV-2 Spike RBD, Wuhan (SARS-CoV-2, UniProt P0DTC2 319-541)
[2] = biological target: T1, SARS-CoV-2 Spike RBD, Wuhan; remark: listed apart in the source

Row | Binder | EC50 [1] [nM] | Kd [2] [nM]
1 | B1 | 6400 | –
2 | B2 | – | 45
3 | B3 | 1100 | –
4 | B4 | – | 75

From US20260139001A1 (Harvard, published 2026)
